Reference: patent US20240010735A1 (EISAI R AND D MANAGEMENT, published 2024)

Columns and labels:
Test in all cases: ELISA: SEAP-His proteins (1 nM) captured on anti-6-His antibody, antibody A 10 µg/mL with human IgG 100 µg/mL, HRP anti-mouse IgG, OD450 as % of human EphA4-SEAP-His
[1] = target: T1, human EphA10 extracellular region-SEAP-His protein (human, UniProt Q5JZY3 34-565)
T1 construct: extracellular domain; also called Eph receptor extracellular region-SEAP-His protein; not shown: secretory alkaline phosphatase (SEAP); histidine tag
T1 sequence (looked up): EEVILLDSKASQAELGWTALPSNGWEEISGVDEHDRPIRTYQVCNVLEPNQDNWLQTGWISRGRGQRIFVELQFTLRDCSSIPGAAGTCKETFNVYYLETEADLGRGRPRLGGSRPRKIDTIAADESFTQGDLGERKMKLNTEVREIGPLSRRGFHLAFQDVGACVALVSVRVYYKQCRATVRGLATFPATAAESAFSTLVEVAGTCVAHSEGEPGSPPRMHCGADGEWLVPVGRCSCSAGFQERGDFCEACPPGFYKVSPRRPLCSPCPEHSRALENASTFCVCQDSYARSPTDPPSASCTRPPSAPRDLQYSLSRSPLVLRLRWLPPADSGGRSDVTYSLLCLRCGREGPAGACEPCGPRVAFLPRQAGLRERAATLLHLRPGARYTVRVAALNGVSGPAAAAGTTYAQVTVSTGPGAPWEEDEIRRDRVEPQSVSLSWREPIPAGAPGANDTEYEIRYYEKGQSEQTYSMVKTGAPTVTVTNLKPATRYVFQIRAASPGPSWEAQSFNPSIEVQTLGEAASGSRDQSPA
Experimental: (§1) Rabbit anti-6-His antibodies (Bethel Laboratories) were coated onto the wells of a 96-well plate (Nunc). After incubating at 4° C. overnight, the wells were blocked at room temperature for 1 hour by 1% Block Ace (DS Pharma Biomedical). After washing 3 times with 0.05% Tween 20/PBS (Thermo […]), each Eph receptor of human extracellular region-SEAP-His protein (final concentration 1 nM) was seeded into each well, and incubated at room temperature for 1 hour. After washing 3 times, human IgG solution (100 μg/mL, Mitsubishi Pharma Corporation) and antibody A (10 μg/mL) were supplemented to the wells, and incubated at room temperature for 1 hour. Horseradish peroxidase-labeled donkey anti-mouse IgG antibody (Jackson ImmunoResearch Laboratories) was added, and incubated at room, temperature for 1 hour. After washing 3 times, TMBZ (3,3′,5,5′-tetramethylbenzidine, Sigma) solution was added to the wells, and upon confirmation of modest coloring, an equal amount of quenching solution (1 N H₂SO₄, Wako Pure Chemicals) was added to the wells, and absorbance at 450 nm was read by a microplate reader (PerkinElmer).

[2] = target: T2, human EphB6 extracellular region-SEAP-His protein (human, UniProt O15197 32-594)
T2 construct: extracellular domain; also called Eph receptor extracellular region-SEAP-His protein; not shown: secretory alkaline phosphatase (SEAP); histidine tag
T2 sequence (looked up): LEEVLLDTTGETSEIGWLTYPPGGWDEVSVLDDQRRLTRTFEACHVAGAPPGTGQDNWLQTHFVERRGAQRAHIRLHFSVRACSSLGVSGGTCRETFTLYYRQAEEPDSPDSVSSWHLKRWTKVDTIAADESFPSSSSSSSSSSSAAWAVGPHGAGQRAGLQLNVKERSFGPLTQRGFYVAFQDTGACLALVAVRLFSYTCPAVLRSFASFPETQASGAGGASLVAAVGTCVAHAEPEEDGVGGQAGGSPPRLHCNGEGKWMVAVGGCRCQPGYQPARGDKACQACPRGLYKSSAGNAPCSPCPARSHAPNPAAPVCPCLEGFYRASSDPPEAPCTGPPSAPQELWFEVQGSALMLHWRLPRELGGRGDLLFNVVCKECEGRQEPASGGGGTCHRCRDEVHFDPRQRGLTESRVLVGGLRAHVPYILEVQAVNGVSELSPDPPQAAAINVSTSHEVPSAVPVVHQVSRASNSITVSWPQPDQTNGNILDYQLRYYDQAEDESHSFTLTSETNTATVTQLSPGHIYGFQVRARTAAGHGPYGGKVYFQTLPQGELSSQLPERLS
Experimental: as §1

[3] = target: T3, human EphA5 extracellular region-SEAP-His protein (human, UniProt P54756 25-573)
T3 construct: extracellular domain; also called Eph receptor extracellular region-SEAP-His protein; not shown: secretory alkaline phosphatase (SEAP); histidine tag
Experimental: as §1

[4] = target: T4, human EphB1 extracellular region-SEAP-His protein (human, UniProt P54762 18-540)
T4 construct: extracellular domain; also called Eph receptor extracellular region-SEAP-His protein; not shown: secretory alkaline phosphatase (SEAP); histidine tag
T4 sequence (looked up): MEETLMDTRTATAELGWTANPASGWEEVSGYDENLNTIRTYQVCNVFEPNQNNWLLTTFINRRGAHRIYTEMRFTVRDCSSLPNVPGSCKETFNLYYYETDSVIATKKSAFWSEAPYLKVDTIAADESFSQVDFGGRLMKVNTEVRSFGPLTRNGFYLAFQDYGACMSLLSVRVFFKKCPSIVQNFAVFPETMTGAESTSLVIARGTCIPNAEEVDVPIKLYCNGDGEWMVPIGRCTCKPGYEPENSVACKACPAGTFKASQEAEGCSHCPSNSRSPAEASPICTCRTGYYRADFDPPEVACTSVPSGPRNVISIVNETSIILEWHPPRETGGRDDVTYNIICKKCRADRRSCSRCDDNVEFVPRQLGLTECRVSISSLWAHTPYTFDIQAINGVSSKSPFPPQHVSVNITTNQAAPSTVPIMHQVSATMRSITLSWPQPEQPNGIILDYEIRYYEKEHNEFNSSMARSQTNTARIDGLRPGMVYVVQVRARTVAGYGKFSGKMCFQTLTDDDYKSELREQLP
Experimental: as §1

Measured: binding result

T3 sequence (P54756 25-573): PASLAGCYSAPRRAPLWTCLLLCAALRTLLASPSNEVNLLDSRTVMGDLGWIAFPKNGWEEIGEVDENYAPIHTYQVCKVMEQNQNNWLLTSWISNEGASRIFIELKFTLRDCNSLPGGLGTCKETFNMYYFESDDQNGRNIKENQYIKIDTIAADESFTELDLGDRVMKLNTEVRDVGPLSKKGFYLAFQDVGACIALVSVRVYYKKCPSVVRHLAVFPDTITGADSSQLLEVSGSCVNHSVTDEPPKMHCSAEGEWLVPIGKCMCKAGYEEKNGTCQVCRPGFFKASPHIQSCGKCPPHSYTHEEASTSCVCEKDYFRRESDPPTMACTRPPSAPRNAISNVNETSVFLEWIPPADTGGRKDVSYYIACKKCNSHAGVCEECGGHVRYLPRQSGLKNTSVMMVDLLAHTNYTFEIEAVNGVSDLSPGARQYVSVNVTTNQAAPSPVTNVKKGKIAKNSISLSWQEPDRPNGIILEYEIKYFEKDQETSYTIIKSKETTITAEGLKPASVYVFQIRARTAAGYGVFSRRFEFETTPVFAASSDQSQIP

B1: mouse anti-EphA4 monoclonal antibody (antibody A) (antibody, mouse IgG1, kappa, V domains shown)
VH: QVQLKQSGPSLVQPSQSLSITCTVSGFSLTRYGVHWVRQSPGKGLEWLGVIWRGGSTDYNAAFMSRLSITKDNSKSQVFFKMNSLQADDTAIYYCAKESLFGVYYDYGYYSMDYWGQGTSVTVSS
VL: DIQMTQSPSSLSASLGERVSLTCRASQEISGYLSWLQQKPDGTIKRLIYAASTLDSGVPKRFSGSRSGSDYSLTISSLESEDFADYYCLQYASYPLTFGAGTKLELKR
notes: purified from hybridoma supernatant
no binding (tested: 10 µg/mL): all assays above
